The values below come from doi:10.1101/2022.06.02.494603.

The target of this experiment is optineurin, C-terminal myc-FLAG-tagged, Q96CV9. The experiment is described as follows: co-IP. As to conditions: remark: other sources report otherwise.
Sequence of optineurin, C-terminal myc-FLAG-tagged, Q96CV9 (Q96CV9 whole entry): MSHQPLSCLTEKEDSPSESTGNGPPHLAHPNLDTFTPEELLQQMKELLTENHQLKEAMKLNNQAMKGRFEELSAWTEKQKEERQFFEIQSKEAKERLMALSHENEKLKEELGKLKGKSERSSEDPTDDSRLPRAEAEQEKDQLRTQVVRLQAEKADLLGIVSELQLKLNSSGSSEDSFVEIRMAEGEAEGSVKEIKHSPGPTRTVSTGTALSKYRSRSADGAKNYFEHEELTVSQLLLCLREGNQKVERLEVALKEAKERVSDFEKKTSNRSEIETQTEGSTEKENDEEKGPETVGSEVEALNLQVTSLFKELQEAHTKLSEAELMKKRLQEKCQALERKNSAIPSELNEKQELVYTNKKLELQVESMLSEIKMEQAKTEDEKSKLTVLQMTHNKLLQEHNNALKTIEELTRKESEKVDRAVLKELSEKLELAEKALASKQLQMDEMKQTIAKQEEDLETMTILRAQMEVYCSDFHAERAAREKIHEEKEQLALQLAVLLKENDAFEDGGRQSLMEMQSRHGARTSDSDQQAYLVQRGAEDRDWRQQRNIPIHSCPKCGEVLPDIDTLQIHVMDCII

B1: TBK1 p.E696K, untagged, Q9UHD2 1-729 (natural protein)
chain: MQSTSNHLWLLSDILGQGATANVFRGRHKKTGDLFAIKVFNNISFLRPVDVQMREFEVLKKLNHKNIVKLFAIEEETTTRHKVLIMEFCPCGSLYTVLEEPSNAYGLPESEFLIVLRDVVGGMNHLRENGIVHRDIKPGNIMRVIGEDGQSVYKLTDFGAARELEDDEQFVSLYGTEEYLHPDMYERAVLRKDHQKKYGATVDLWSIGVTFYHAATGSLPFRPFEGPRRNKEVMYKIITGKPSGAISGVQKAENGPIDWSGDMPVSCSLSRGLQVLLTPVLANILEADQEKCWGFDQFFAETSDILHRMVIHVFSLQQMTAHKIYIHSYNTATIFHELVYKQTKIISSNQELIYEGRRLVLEPGRLAQHFPKTTEENPIFVVSREPLNTIGLIYEKISLPKVHPRYDLDGDASMAKAITGVVCYACRIASTLLLYQELMRKGIRWLIELIKDDYNETVHKKTEVVITLDFCIRNIEKTVKVYEKLMKINLEAAELGEISDIHTKLLRLSSSQGTIETSLQDIDSRLSPGGSLADAWAHQEGTHPKDRNVEKLQVLLNCMTEIYYQFKKDKAERRLAYNEEQIHKFDKQKLYYHATKAMTHFTDECVKKYEAFLNKSEEWIRKMLHLRKQLLSLTNQCFDIEEEVSKYQEYTNELQETLPQKMFTASSGIKHTMTPIYPSSNTLVEMTLGMKKLKEKMEGVVKELAENNHILERFGSLTMDGGLRNVDCL
B1 came in with a TBK1 bound to OPTN relative to wild type (relative to TBK1 WT) of 0.02.

B2: TBK1 G217R, untagged, Q9UHD2 1-729 (natural protein)
chain: MQSTSNHLWLLSDILGQGATANVFRGRHKKTGDLFAIKVFNNISFLRPVDVQMREFEVLKKLNHKNIVKLFAIEEETTTRHKVLIMEFCPCGSLYTVLEEPSNAYGLPESEFLIVLRDVVGGMNHLRENGIVHRDIKPGNIMRVIGEDGQSVYKLTDFGAARELEDDEQFVSLYGTEEYLHPDMYERAVLRKDHQKKYGATVDLWSIGVTFYHAATRSLPFRPFEGPRRNKEVMYKIITGKPSGAISGVQKAENGPIDWSGDMPVSCSLSRGLQVLLTPVLANILEADQEKCWGFDQFFAETSDILHRMVIHVFSLQQMTAHKIYIHSYNTATIFHELVYKQTKIISSNQELIYEGRRLVLEPGRLAQHFPKTTEENPIFVVSREPLNTIGLIYEKISLPKVHPRYDLDGDASMAKAITGVVCYACRIASTLLLYQELMRKGIRWLIELIKDDYNETVHKKTEVVITLDFCIRNIEKTVKVYEKLMKINLEAAELGEISDIHTKLLRLSSSQGTIETSLQDIDSRLSPGGSLADAWAHQEGTHPKDRNVEKLQVLLNCMTEIYYQFKKDKAERRLAYNEEQIHKFDKQKLYYHATKAMTHFTDECVKKYEAFLNKSEEWIRKMLHLRKQLLSLTNQCFDIEEEVSKYQEYTNELQETLPQKMFTASSGIKHTMTPIYPSSNTLVEMTLGMKKLKEEMEGVVKELAENNHILERFGSLTMDGGLRNVDCL
In turn, B2 gave a TBK1 bound to OPTN relative to wild type (relative to TBK1 WT) of 0.27.
